The record followed here is paper PMC3469484.

Numbering of substitutions follows the chain as printed.

Data set [1] relates to T1, OhrR WT (Chromobacterium violaceum ATCC 12472), ORF:deafe3b3.
T1 sequence: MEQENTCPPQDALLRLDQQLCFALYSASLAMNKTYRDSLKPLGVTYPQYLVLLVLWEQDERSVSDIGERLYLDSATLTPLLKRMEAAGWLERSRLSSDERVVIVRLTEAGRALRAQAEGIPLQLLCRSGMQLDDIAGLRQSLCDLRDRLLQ
The experiment in a line: EMSA. Conditions: EMSA: 20 mM Tris-HCl pH 7.4, 50 mM KCl, 1 mM DTT, 1 mM EDTA, 5% glycerol, 0.05 mg/ml BSA, 0.1 mg/ml salmon sperm DNA, 25 C, 25 min; footprinting the same …. Background: Mobility shift assays separate free from complexed probe on a gel.

Data set [2] has as its system T2, OhrR C126S C126S (Chromobacterium violaceum ATCC 12472), ORF:deafe3b3.
T2 sequence: T1 sequence with C126S
The data set can be described thus: EMSA. The conditions noted are these: EMSA: 20 mM Tris-HCl pH 7.4, 50 mM KCl, 1 mM DTT, 1 mM EDTA, 5% glycerol, 0.05 mg/ml BSA, 0.1 mg/ml salmon sperm DNA, 25 C, 25 min; footprinting the same ….

Data set [3] relates to T1, OhrR WT (Chromobacterium violaceum ATCC 12472), ORF:deafe3b3. The data set can be described thus: DNase I footprinting. Conditions: EMSA: 20 mM Tris-HCl pH 7.4, 50 mM KCl, 1 mM DTT, 1 mM EDTA, 5% glycerol, 0.05 mg/ml BSA, 0.1 mg/ml salmon sperm DNA, 25 C, 25 min; footprinting the same ….
Data set [4] has as its target Chromobacterium violaceum OhrR (CV0210), wild type, N-terminal histidine tag (Chromobacterium violaceum). The experiment in a line: cross-linking; intermolecular disulfide bond formed on oxidation, read by 14% nonreducing SDS-PAGE: DTT-reduced, desalted OhrR (10 µM) treated with 100 µM cumene hydroperoxide for 30 min, then alkylated with 100 mM NEM for 2 h; Coomassie stain.

With “TGAATTCAATCCGTGACGCCGCACAGGGCGCCGGAATGGAACATTCGCGCGCGAACCGGAAAGCGACTCAGCAACGCATCCAGCCTGTCGACACATGCCTCAGCCACATCAGGACTCCTTATCAAATTTTCAGGATCCTATGCAGCTTATCGTCATTTTGCTTGGCATAAAGTTTCTCCAGCCAAACGGCTTAAGCCCACCAACCATCAGGAGCACATCATGTCGATTGAAACCATTCTGTACCGGACCCAAGCCACCGTAAGCTTA (double strand) [ohrB promoter]”, the binding entry in data set [1] is given as “no binding”.
Regarding “TGGATCCCTCGCTGGCCGATCTGGGACGCGGCCCGGTGCGGGCGGCCGCCTGATCGCGGTTTCGCGCCCGCTTGGCGCGGGCGCGTCGCGGTTCCGCATAATAATAAATTGCTTGCAATTAAATAGTGCACTATTTATTATGCGGCCATGGAACAAGAAAACACGTGCCCGCCGCAGGACGCGCTTTTGCGGCTGGACCAGCAACTCTGCTTCGCGCTGTATTCCGCCAAGCTTA (double strand) [ohrR promoter]”, the binding result in data set [1], in data set [2] and in data set [3] was “binds” in each case.
For “TAAGCTTGCGGTGGCTTCGGCGGTATACAGTACTTTTTGCAGAGGGTTCATCTGGCTCTCCTTGGCTTGACGCCGTTGCGATTAAAATAATGAGCTATTTAATAGTGCACTATCTAACTATCAAAACCCTGACGGGTTCATTGCAGCAGCCGGTCGCGCAGATCGCACAGCGACTGCCTCAATCCGGCGATATCGTCCAGTTGCATTCCGCTCCGGCAGGATCCA (double strand) [ohrA promoter]”, the binding result in data set [1], in data set [2] and in data set [3] was “binds” throughout.
In general, stoichiometry N refers to a count of units in the complex or per binding partner. Consider “Chromobacterium violaceum OhrR (CV0210), wild type, N-terminal histidine tag (natural protein)”, for which the stoichiometry N in data set [4] stood at 2.
